The values below come from US20230106247A1 (L AND L BIO CO LTD NINGBO CHINA, published 2023).

The term EC50 denotes the midpoint of the concentration-response curve.

Like-named read-outs stand apart in the source and are kept apart here.

Experiment [1] deals with T1, human Sirpα-V1-his (human, UniProt P78324 31-373).
T1 construct: range 31-373; Bought (Sino Biological 11612-H08H) or expressed in-house; also called hSirpα-V1; hSirpα-V1-his
Kind of experiment: ELISA. As for the experimental part:
The self-expressed human PD-1, Sirpα and the like antigens of the present disclosure were diluted with a PBS buffer at pH7.4 to a concentration of 2 μg/mL according to different assays, and then added into a 96-well ELISA plate (Corning, CLS3590-100EA) at a volume of 50 μL/well, and placed in an incubator at 37° C. for 2 hours. After the liquid was discarded, the wells were added with a blocking solution of 5% skimmed milk (Sangon Biotech (Shanghai) Co., Ltd., A600669-0250) diluted with PBS at 200 μL/well, and incubated in an incubator at 37° C. for 3 hours, or placed overnight at 4° C. (for 16-18 hours) for blocking. The blocking solution was discarded, and the plate was washed with a PBST buffer (pH7.4 PBS containing 0.05% tween-20) for 5 times, then added with 50 μL/well of 5-fold serial dilution of the antibody to be tested in 1% BSA, and incubated at 37° C. for 1 hour. […] The plated was washed with PBST for 5 times, then added with 50 μL/well of TMB chromogenic substrate (KPL, 52-00-03), incubated at room temperature for 5-10 min, added with 50 μL/well of 1 M H₂SO₄ to stop the reaction, and read by a […] Go microplate reader (ThermoFisher, 51119200) for the absorbance value at 450 nm, and then EC₅₀ was calculated according to the OD value.
The aforementioned bispecific antibodies were cloned, expressed and purified according to the cloning, expression and purification methods of Example 1 of the present disclosure.
For orientation: An ELISA detects its analyte on a solid surface through an enzyme-linked reagent.

Another experiment deals with T2, Cyno Sirpα L939 (cynomolgus, limits assumed).
T2 construct: also called RB6-2; Cyno Sirpα polymorphism 6 (L939)
T2 chain: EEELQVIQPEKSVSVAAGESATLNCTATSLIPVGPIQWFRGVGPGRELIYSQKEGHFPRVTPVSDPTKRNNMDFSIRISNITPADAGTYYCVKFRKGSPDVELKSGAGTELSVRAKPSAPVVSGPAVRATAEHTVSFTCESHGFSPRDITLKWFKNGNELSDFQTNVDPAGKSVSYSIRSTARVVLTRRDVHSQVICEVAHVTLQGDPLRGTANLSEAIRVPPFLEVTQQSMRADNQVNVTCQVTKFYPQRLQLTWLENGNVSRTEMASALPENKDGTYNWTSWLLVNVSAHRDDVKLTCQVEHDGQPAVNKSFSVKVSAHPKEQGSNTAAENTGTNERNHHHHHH
Put plainly: ELISA. The procedure:
(§1) Different antigens (recombinant proteins) such as the human Sirpα-V1-hFc, Sirpα-V1-his, Sirpα-V2-his, Sirpβ-his, Sirpγ-his, monkey Sirpα-his (cynoSirpα-his) or NOD-mSirpα-his described in Example 1 were diluted with a PBS buffer at pH7.4 to concentrations of 1 μg/mL, 2 μg/mL or 5 μg/mL, added into a 96-well ELISA plate (Corning, CLS3590-100EA) at a volume of 50 μL/well, and placed in an incubator at 37° C. for 2 hours. After the liquid was discarded, the wells were added with a blocking solution of 5% skimmed milk (skimmed milk powder available from Bright Dairy) diluted with PBS at 230 μL/well, and incubated in an incubator at 37° C. for 3 hours, or placed overnight at 4° C. (for 16-18 hours) for blocking. The blocking solution was discarded, and the plate was washed with a PBST buffer (pH7.4 PBS containing 0.05% Tween-20) for 5 times, then added with 50 μL/well of the supernatant (containing a detection antibody) or 10 μg/mL of the starting 5-fold gradient dilution of the antibody to be tested, and incubated at 37° C. for 1 hour. […] The plated was washed with PBST for 5 times, then added with 50 μL/well of TMB chromogenic substrate (KPL, Cat #: 52-00-03), incubated at room temperature for 10-15 min, added with 50 μL/well of 1 M H₂SO₄ to stop the reaction, and read by a […] Go microplate reader (ThermoFisher, Cat #: 51119200) for the absorbance value at 450 nm, and then a clone with high binding activity was selected or a EC₅₀ value was calculated according to the OD value.

The target of the next experiment is T3, Cyno Sirpα L938 (cynomolgus, limits assumed).
T3 construct: also called RB6-1; Cyno Sirpα polymorphism 5 (L938)
T3 chain: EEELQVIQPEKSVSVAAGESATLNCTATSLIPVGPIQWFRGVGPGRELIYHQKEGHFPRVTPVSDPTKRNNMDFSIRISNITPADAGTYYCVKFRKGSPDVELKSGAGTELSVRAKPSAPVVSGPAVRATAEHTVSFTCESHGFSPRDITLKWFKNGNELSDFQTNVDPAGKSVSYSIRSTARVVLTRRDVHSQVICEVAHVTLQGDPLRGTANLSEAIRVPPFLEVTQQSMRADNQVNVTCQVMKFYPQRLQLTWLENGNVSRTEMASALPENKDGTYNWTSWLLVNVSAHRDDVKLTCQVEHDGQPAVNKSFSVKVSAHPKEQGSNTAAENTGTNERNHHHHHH
Kind of experiment: ELISA. As for the experimental part:
as §1

The target in experiment [2] is T1, human Sirpα-V1-his. Put plainly: ELISA. The procedure: as §1
This is another data set of the same source.

A further experiment concerns the target T4, Cyno Sirpα L936 (cynomolgus).
T4 construct: also called RB3-3; Cyno Sirpα polymorphism 3 (L936)
T4 chain: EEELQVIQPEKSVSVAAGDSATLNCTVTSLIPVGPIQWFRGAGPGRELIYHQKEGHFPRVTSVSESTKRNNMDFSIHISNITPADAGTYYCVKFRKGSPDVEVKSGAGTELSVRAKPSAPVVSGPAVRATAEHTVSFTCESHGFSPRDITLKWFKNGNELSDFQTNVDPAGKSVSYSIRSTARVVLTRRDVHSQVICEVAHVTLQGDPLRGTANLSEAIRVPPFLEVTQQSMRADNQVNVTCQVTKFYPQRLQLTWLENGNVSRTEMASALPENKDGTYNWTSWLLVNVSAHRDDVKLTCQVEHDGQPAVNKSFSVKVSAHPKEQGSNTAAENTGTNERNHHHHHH
Kind of experiment: ELISA. As for the experimental part: as §1

Experiment [3] addresses T5, human Sirpα-V1 on CHO-K1 cells (CHO-K1 hSirpα+ cell line) (human, UniProt P78324 31-504).
T5 construct: whole, on cells; also called hSirpα-v1+ cell strain
Put plainly: cell ELISA on hSirpα-v1+ cell strain. From the text: The readings on a microplate reader (MultiskanGO Thermo, Model 51119200) were subjected to data analysis by GraphPad prism 5.

B1: humanized antibody mab14-h16 (antibody, human IgG4 S228P, kappa, V domains shown)
VH: QVQLVQSGAEVKKPGASVKVSCKASGYNFNIYWINWVRQAPGQGLEWIGNIYPSSISTNYNEKFKTRATLTVDKSTSTVYMELSSLRSEDTAVYYCARSEGTYYGGRYEGDWFGYWGQGTLVTVSS
VL: DIQMTQSPSSLSASVGDRVTITCRASQDIRNYLNWYQQKPGKAPKLLIYFTSTLHSGVPSRFSGSGSGTDFTLTISSLQPEDFATYYCQQGNTLPWTFGGGTKVEIKR
notes: hIgG4, κ
Take B1: the EC50 with human Sirpα-V1-his [1] amounted to 0.077 nM; in the experiment with human Sirpα-V1-his [2], 0.065 nM; in the experiment with Cyno Sirpα L936 it was 0.143 nM; in experiment [3], 0.124 nM. The binding result in the experiment with Cyno Sirpα L939 and with Cyno Sirpα L938 was “no binding (tested: the binding signal was not detected)” throughout.
